# Reference: publication PMC3226747 (Nature, 2011)
# Where no end group is shown, it is not given here. [ ]: non-standard residue; d: D form. pGlu = O=C1CC[C@@H](C(=O)O)N1
# Target: T1, MitTxβ (Micrurus tener tener (Texas coral snake), UniProt G9I930 31-149, disulfide bonds)
# T1 sequence: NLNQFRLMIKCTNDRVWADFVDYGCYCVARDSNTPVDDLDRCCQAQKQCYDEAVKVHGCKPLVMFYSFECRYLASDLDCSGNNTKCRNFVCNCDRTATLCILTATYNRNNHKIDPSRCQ
# Assay: ITC
binder,measurement,value
"MitTxα (natural protein, not fully specified (bridges); also: disulfide bonds, pairing not given here) [pGlu]IRPAFCYEDPPFFQKCGAFVDSYYFNRSRITCVHFFYGQCDVNQNHFTTMSECNRVCHG",Kd,12.2 ± 3.1 nM
